Publication PMC3045595 (Nucleic Acids Research, 2010)

Target: the molecule itself
Test: SEC

B1: human TYW5 (tRNA yW-synthesizing enzyme 5), wild type (enzyme)
chain: MAGQHLPVPRLEGVSREQFMQHLYPQRKPLVLEGIDLGPCTSKWTVDYLSQVGGKKEVKIHVAAVAQMDFISKNFVYRTLPFDQLVQRAAEEKHKEFFVSEDEKYYLRSLGEDPRKDVADIRKQFPLLKGDIKFPEFFKEEQFFSSVFRISSPGLQLWTHYDVMDNLLIQVTGKKRVVLFSPRDAQYLYLKGTKSEVLNIDNPDLAKYPLFSKARRYECSLEAGDVLFIPALWFHNVISEEFGVGVNIFWKHLPSECYDKTDTYGNKDPTAASRAAQILDRALKTLAELPEEYRDFYARRMVLHIQDKAYSKNSE
stoichiometry N: 2
